The values that follow come from PMC8591229.

This assay deals with T1, human islet amyloid polypeptide (IAPP) (human) (not fully specified).
T1 chain: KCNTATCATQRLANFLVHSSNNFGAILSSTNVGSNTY
Description: seeded thioflavin T fluorescence aggregation kinetics; 5 uM monomeric IAPP with preformed IAPP fibril seeds at 0 to 33% (monomer equivalents), 33 mM acetate, 150 mM KCl, pH 5.3, 37 C, quiescent; elongation (monomer added to fibril ends) from the initial gradient at 33% seeds and the fibril length by cryo-TEM. The following applies: remark: other sources report otherwise.

Bridge positions count the residues as written; N and C are the ends. Ends that are not written are not given here.

As for KCNTATCATQRLANFLVHSSNNFGAILSSTNVGSNTY-NH2 (disulfide 2-7 (inferred); not fully specified) [human islet amyloid polypeptide (IAPP)], the elongation rate constant k+ was found to be 500000 M⁻¹ s⁻¹.
